In US20100003232:

Legend:
[1] = target: β-Amyloid (1-40) (UniProt P05067)
[2] = target: Aβ produced naturally by APPswe.3 cells (secreted Aβ in conditioned medium) (UniProt P05067)
[3] = target: amyloid-β peptide (1-42) (UniProt P05067)
[4] = target: Human insulin (UniProt P01308)
[5] = target: secreted ectodomain of the amyloid precursor protein derivative generated by α-secretase (APPsα) (UniProt P05067)

Sequence of UniProt P01308 (P01308 whole entry, looked up, the tested form may be a part): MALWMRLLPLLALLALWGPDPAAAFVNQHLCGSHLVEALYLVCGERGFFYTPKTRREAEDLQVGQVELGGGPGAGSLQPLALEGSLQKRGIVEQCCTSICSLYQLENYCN

Substance | Hill coefficient [1] | Kcat [1] | t½ for the degradation of secreted Aβ [2] | degradation followed by MALDI-TOF [3] | degradation followed by MALDI-TOF [4] | degradation in conditioned medium (Western blot) [5] | Km [1]
IDE D426C/K899C double cysteine mutant | 2.3 | 20 s⁻¹ | that by the IDE D426C/K899C mutant was 2 minutes | all three double cysteine IDE mutants degraded both insulin and Aβ(1-42) more effectively than wild-type IDE | all three double cysteine IDE mutants degraded both insulin and Aβ(1-42) more effectively than wild-type IDE | IDE had no effect on the secreted ectodomain of the amyloid precursor protein derivative generated by α-secretase (APPsα) | –
wild type human insulin-degrading enzyme (IDE) | 2.9 | 8 s⁻¹ | The estimated t½ for the degradation of secreted Aβ by wild-type IDE was 11 minutes | – | – | IDE had no effect on the secreted ectodomain of the amyloid precursor protein derivative generated by α-secretase (APPsα) | 25 µM
